{"source": "paper PMC6901939", "about": "“A Novel Single Domain Antibody Targeting FliC Flagellin of Salmonella enterica for Effective Inhibition of Host Cell Invasion” (Frontiers in Microbiology, 2019)", "target": "T1, FliC flagellin of S. enterica serovar Typhimurium (Salmonella enterica serovar …, UniProt P06179)", "T1 construct": "FliC flagellin, Salmonella enterica serovar Typhimurium; also called purified FliC; source: bought: Sigma-Aldrich", "T1 sequence (P06179 whole entry)": "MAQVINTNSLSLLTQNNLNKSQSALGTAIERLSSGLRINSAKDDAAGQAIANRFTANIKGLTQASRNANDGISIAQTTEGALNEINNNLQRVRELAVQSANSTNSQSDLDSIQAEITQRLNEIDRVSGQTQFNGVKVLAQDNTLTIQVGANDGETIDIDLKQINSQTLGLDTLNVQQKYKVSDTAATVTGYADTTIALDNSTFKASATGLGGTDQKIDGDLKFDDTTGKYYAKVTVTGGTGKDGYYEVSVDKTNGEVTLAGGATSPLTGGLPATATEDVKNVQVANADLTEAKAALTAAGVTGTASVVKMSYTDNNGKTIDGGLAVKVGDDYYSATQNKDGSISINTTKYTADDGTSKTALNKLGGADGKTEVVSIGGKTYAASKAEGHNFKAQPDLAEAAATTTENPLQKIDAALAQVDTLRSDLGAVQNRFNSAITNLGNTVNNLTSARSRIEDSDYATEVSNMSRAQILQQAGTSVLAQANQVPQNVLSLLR", "assay": "BLI; sdAb immobilized on nickel-charged biosensors and dipped into FliC at 250, 125, 62.5, 31.3 and 15.6 nM", "settings": "both partners purified", "data": [{"binder": "Abi-Se07 (VHH, X2 = V or K), CDR2 ASX3TGVST (X3 = F or Y), CDR3 AGTX4RTLWGSKWRDX5X6EYEY (X4 = T or L; X5 = V or R; X6 = L or R); CDR3 is 20 amino acids long; The c-myc tag lies between the VHH and the His6 tag, so it probably stayed on the protein; Gene synthesized and cloned into pET27b; also called 0A07; anti-Salmonella sdAb; not shown: His6, C-terminal, kept) VHH: QVQLVESGGGLVQAGGSLRLSCTDSGRTFSVKPMGWFRQAPGMEREFVAAASFTGVSTFYADSVKDRFTIFRDKDKNTMDLQINSLKPEDTGAYYCAGTTRTLWGSKWRDVLEYEYWGQGTQVTVSS", "values": [{"measurement": "Kd", "result": 16.2, "unit": "nM"}]}]}
